# From patent CN117886935A (BEIJING KENUO XINCHENG TECH CO LTD, dated 2024)
# Residue numbers refer to the chain shown, from its start.
# B1: hz73 (antibody, V domains shown)
# VH: EVQLVQSGAEVKKPGASVKVSCKASGYTFTDYNMDWVRQAPGQGLEWMGDIIPNYDSATYNQKFKGRVTMTRDTSTSTVYMELSSLRSEDTAVYYCARKGGGYVNWYFDVWGQGTTVTVSS
# VL: DIQMTQSPSSLSASVGDRVTITCHASQNINVWLSWYQQKPGKAPKLLIYKASNLHTGVPSRFSGSGSGTDFTFTISSLQPEDIATYYCQQGESYPYTFGGGTKVEIK
# notes: also called 人源化抗体hz73
# B2: ch73 (antibody, human IgG1, kappa, V domains shown)
# VH: EVQLQQFGAELVKPGASVKISCKASGYTFTDYNMDWMKQSHGKSLEWIGDIIPNYDSATYNQKFKGKATLTVDRSSSTAYMELRSLSSEDTAVYYCARKGGGYVNWYFDVWGAGTTVTVSS
# VL: DIQMNQSPSSLSASLGDTITITCHASQNINVWLSWYQQKPGNIPKLLIYKASNLHTGVPSRFSGSGSGTGFTLTISSLQPEDIATYYCQQGESYPYTFGGGTKLEIKR
# notes: also called 嵌合抗体ch73; 73号
# B3: Cabiralizumab (FPA-008) (antibody, V domains shown)
# VH: QVQLVQSGAEVKKPGSSVKVSCKASGYTFTDNYMIWVRQAPGQGLEWMGDINPYNGGTTFNQKFKGRVTITADKSTSTAYMELSSLRSEDTAVYYCARESPYFSNLYVMDYWGQGTLVTVSS
# VL: EIVLTQSPATLSLSPGERATLSCKASQSVDYDGDNYMNWYQQKPGQAPRLLIYAASNLESGIPARFSGSGSGTDFTLTISSLEPEDFAVYYCHLSNEDLSTFGGGTKVEIK
# notes: Control antibody, synthesised after CN107011438 A; also called Cabirlizumab; 对照抗体
# B4: Lm4Hm7 (antibody, V domains shown)
# VH: B1 VH with D31S, D35H, D56E, N61A
# VL: B1 VL with W32Y, S34N
# B5: Hm6L (antibody, V domains shown)
# VH: B1 VH with N61A
# VL: B1 VL
# B6: Hm2L (antibody, V domains shown)
# VH: B1 VH with D31S
# VL: B1 VL
# B7: Lm5H (antibody, V domains shown)
# VH: B1 VH
# VL: B1 VL with K50D
# B8: Lm4H (antibody, V domains shown)
# VH: B1 VH
# VL: B1 VL with W32Y, S34N
# B9: Hm1L (antibody, V domains shown)
# VH: B1 VH with D31E
# VL: B1 VL
# B10: Lm6H (antibody, V domains shown)
# VH: B1 VH
# VL: B1 VL with H55E
# B11: Lm3H (antibody, V domains shown)
# VH: B1 VH
# VL: B1 VL with S34N
# B12: Lm7H (antibody, V domains shown)
# VH: B1 VH
# VL: B1 VL with H24R, K50D, H55E
# B13: Lm7Hm7 (antibody, V domains shown)
# VH: B1 VH with D31S, D35H, D56E, N61A
# VL: B1 VL with H24R, K50D, H55E
# B14: Hm3L (antibody, V domains shown)
# VH: B1 VH with D35H
# VL: B1 VL
# B15: Hm4L (antibody, V domains shown)
# VH: B1 VH with D50G
# VL: B1 VL
# B16: Lm1H (antibody, V domains shown)
# VH: B1 VH
# VL: B1 VL with H24R
# B17: Hm5L (antibody, V domains shown)
# VH: B1 VH with D56E
# VL: B1 VL
# B18: Lm2H (antibody, V domains shown)
# VH: B1 VH
# VL: B1 VL with W32Y
# Target: T1, CSF-1R-mFc (human, UniProt P07333 20-512, limits assumed)
# T1 construct: not shown: mouse Fc (mFc)
# T1 sequence (P07333 20-512 limits assumed): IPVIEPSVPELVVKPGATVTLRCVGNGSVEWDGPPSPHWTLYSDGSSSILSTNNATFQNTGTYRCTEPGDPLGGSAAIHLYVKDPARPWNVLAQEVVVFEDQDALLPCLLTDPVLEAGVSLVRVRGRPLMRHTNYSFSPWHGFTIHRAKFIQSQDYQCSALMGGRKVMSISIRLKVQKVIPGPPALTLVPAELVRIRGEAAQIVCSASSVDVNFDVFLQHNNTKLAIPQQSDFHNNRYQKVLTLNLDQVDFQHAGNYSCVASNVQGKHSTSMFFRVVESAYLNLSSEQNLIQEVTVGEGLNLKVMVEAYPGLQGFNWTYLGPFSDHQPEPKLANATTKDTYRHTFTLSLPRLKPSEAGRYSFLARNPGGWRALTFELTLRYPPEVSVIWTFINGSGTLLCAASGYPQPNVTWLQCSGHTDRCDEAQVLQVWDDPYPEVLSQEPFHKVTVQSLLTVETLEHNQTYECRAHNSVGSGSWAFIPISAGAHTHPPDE
# Assay: competition ELISA: human IL-34 coated, CSF-1R-mFc 0.15 μg/ml premixed with antibody
row,Binder,IC50
1,B1,0.393 nM
2,B2,~0.71 nM
3,B3,~0.752 nM

# Target: T1, CSF-1R-mFc
# Assay: competition ELISA: CSF1-His coated, CSF-1R-mFc 0.15 μg/ml premixed with antibody
row,Binder,IC50
1,B1,0.339 nM
2,B2,0.323 nM
3,B3,0.3 nM

# Target: T2, 人CSF-1R-his重组蛋白 (human CSF-1R-his recombinant protein) (human, UniProt P07333 20-512, limits assumed)
# T2 construct: Analyte of the ForteBio assay, 60 nM; also called CD115; M-CSF-R; not shown: His tag
# T2 sequence (P07333 20-512 limits assumed): as above
# Assay: BLI (ForteBio), antibody on AHC probe, CSF-1R-his 60 nM, 1:1 fit
Binder,Kd,koff,kon
B2,0.03 nM,6.54e-06 s⁻¹,218000 M⁻¹ s⁻¹
B3,2.38 nM,0.000228 s⁻¹,95800 M⁻¹ s⁻¹

# Target: T2, 人CSF-1R-his重组蛋白 (human CSF-1R-his …)
# Assay: BLI (ForteBio)
Binder,Kd,koff,kon
B1,0.0605 nM,1.3e-05 s⁻¹,215000 M⁻¹ s⁻¹
B4,0.138 nM,2.02e-05 s⁻¹,146000 M⁻¹ s⁻¹
B5,0.0785 nM,1.53e-05 s⁻¹,195000 M⁻¹ s⁻¹
B6,0.0963 nM,2.9e-05 s⁻¹,301000 M⁻¹ s⁻¹
B7,0.105 nM,2.1e-05 s⁻¹,200000 M⁻¹ s⁻¹
B8,0.189 nM,1.93e-05 s⁻¹,102000 M⁻¹ s⁻¹
B9,0.0853 nM,2.2e-05 s⁻¹,258000 M⁻¹ s⁻¹
B10,0.188 nM,1.9e-05 s⁻¹,101000 M⁻¹ s⁻¹
B11,0.0935 nM,1.45e-05 s⁻¹,155000 M⁻¹ s⁻¹
B12,0.0634 nM,1.3e-05 s⁻¹,205000 M⁻¹ s⁻¹
B13,0.107 nM,1.23e-05 s⁻¹,115000 M⁻¹ s⁻¹
B14,0.082 nM,2.1e-05 s⁻¹,256000 M⁻¹ s⁻¹
B15,0.125 nM,1.4e-05 s⁻¹,112000 M⁻¹ s⁻¹
B16,0.0683 nM,1.4e-05 s⁻¹,205000 M⁻¹ s⁻¹
B17,0.0794 nM,2.55e-05 s⁻¹,321000 M⁻¹ s⁻¹
B18,0.109 nM,1.14e-05 s⁻¹,105000 M⁻¹ s⁻¹
B2,0.03 nM,6.54e-06 s⁻¹,218000 M⁻¹ s⁻¹

# Target: T3, CSF-1R on rhCSF-1R-CHO cells (human, UniProt P07333 20-972)
# T3 construct: whole, on cells; also called 细胞表面CSF-1R; CSF-1R-CHO细胞
# T3 sequence (P07333 20-972): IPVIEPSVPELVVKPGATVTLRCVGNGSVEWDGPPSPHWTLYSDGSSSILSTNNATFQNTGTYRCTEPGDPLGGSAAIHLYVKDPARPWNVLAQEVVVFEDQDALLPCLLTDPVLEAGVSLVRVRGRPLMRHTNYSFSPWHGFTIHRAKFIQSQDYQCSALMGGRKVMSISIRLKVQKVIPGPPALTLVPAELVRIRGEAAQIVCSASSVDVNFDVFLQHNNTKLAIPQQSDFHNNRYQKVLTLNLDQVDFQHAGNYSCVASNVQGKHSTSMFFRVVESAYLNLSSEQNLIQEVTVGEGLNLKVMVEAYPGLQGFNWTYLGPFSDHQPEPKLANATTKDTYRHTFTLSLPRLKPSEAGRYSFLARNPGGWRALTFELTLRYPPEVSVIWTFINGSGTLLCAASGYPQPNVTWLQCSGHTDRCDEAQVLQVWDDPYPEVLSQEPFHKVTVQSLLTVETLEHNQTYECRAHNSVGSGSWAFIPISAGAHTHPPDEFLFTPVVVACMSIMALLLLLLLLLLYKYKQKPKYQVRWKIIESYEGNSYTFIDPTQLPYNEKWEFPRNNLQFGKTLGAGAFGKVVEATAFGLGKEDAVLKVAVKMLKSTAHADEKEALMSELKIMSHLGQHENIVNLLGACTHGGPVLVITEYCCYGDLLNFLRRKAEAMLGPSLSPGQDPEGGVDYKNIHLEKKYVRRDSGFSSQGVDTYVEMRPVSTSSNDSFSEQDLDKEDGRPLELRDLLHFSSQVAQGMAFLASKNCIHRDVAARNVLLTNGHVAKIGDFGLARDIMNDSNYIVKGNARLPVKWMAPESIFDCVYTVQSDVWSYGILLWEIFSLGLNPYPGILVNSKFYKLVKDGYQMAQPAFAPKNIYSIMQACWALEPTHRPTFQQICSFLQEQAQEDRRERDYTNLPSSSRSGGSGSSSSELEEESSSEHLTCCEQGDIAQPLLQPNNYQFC
# Assay: flow cytometry on rhCSF-1R-CHO cells, FITC goat anti-human
row,Binder,EC50
1,B1,0.196 µg/mL
2,B5,0.199 µg/mL
3,B11,0.253 µg/mL
4,B12,0.201 µg/mL
5,B3,0.109 µg/mL

# Target: CSF-1R on CSF-1R/SRE-Luc/HEK293 reporter cells (UniProt P07333 20-972, limits assumed)
# Sequence (P07333 20-972 limits assumed): as the sequence (P07333 20-972) above
# Assay: cell-based or functional assay
Binder,"IC50, inhibition of CSF-1-stimulated (7.2 ng/ml) SRE-Luc reporter in CSF-1R/SRE-Luc/HEK293 cells","IC50, inhibition of IL-34-stimulated (85.06 ng/ml) SRE-Luc reporter in CSF-1R/SRE-Luc/HEK293 cells"
B1,0.31 µg/mL,0.8 µg/mL
B3,0.21 µg/mL,0.34 µg/mL
